{"source": "patent US6500669", "target": "hUBF (upstream binding factor, RNA polymerase I transcription factor) (Homo sapiens) (UniProt P17480)", "sequence (P17480 whole entry, the tested form may be a part)": "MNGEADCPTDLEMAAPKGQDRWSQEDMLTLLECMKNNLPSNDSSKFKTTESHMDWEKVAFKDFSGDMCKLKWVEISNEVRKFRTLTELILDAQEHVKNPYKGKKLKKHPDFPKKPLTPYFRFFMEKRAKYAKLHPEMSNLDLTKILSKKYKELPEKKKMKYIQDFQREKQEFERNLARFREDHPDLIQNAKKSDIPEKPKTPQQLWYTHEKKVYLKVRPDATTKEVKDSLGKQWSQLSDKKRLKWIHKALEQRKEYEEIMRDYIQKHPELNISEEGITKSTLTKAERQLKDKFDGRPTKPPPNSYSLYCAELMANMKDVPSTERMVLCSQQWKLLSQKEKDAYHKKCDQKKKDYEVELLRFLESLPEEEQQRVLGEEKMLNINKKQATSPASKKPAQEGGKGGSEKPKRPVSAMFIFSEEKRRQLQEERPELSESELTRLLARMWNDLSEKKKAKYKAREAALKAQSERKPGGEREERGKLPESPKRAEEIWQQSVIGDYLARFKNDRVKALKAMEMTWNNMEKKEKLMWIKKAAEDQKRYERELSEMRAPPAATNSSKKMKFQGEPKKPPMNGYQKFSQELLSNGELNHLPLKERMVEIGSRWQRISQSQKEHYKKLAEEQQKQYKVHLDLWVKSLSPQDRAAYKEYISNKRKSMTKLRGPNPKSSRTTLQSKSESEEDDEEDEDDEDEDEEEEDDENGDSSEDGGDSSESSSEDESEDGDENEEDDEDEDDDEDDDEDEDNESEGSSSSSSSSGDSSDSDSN", "assay": "footprint", "conditions": "apparent Kd, half-maximal binding; cooperative, Hill 2.7; 14 mM MgCl2, 50 mM KCl, pH 7.9, 30 C", "data": [{"substance": "human rRNA gene promoter fragment -208 to +78 (EcoRI-BstEII of pSBr208)", "values": [{"measurement": "Kd", "value": 0.018, "unit": "nM"}]}]}
